From patent US20190144550A1 (Pfizer, published 2019)

Tests used:
[1] = target: T1, Monomeric 8-histidine tagged human EGFRvIII extracellular domain (human, UniProt P00533 298-645); assay: SPR, captured by anti-mouse Fc, 37 C
T1 construct: Analyte in all SPR assays; not shown: 8-histidine tag
Text: To generate human antibodies against EGFRvIII, transgenic AlivaMab mice (Ablexis LLC, San Francisco, Calif.) were immunized with alternating schedule of paraformaldehyde-fixed rat glioblastoma cell line expressing EGFRvIII, F98-npEGFRvIII (American Type Culture Collection, Manassas, Va.) and peptides (SEQ ID NO: 227: […]) directed to the junction region in EGFRvIII. Hybridomas were generated using standard techniques. To determine the binding affinity and specificity of these hybridomas to EGFRvIII, antibodies in culture supernatants were captured by anti-mouse Fc using Biacore™ T200 biosensor equipped with anti-mouse Fc coupled CM4 sensor chips (Biacore™ AB, Uppsala, Sweden—now GE Healthcare). Monomeric 8-histidine tagged human EGFRvIII extracellular domain was then injected as the analyte at 10-fold dilution series starting with top concentration 1000 nM. Affinity of anti-EGFRvIII antibodies towards human EGFRvIII was measured at 37° C.

[2] = target: T2, human EGFRvIII expressed on cells (human, UniProt P00533 298-1210); assay: flow cytometry, F98-npEGFRvIII against F98, F98-EGFRwt and A431 cells
T2 construct: the F98-npEGFRvIII line was obtained from ATCC and its construct is not described; also called F98-npEGFRvIII; F98-EGFRvIII

[3] = target: T2, human EGFRvIII expressed on cells; assay: flow cytometry, F98-npEGFRvIII cells
[4] = target: T3, 8-histidine tagged recombinant wild-type protein EGFRwt (UniProt P00533 25-645, limits assumed); assay: SPR, captured by anti-mouse Fc
T3 construct: not shown: 8-histidine tag

Row | Binder | Kd [1] | koff [1] | kon [1] | fold MFI on EGFRvIII expressing cell line over non-expressing cell lines [2] | % positive [3] | MFI [3] | binding result [4]
1 | 42G9 (antibody, V domains shown, Hybridoma supernatant (AlivaMab mouse); captured/detected via mouse Fc; also called mAb 42G9) VH: QVTLKESGPVLLKPTETLTLTCTVSGFSLSNPRMGVSWIRQPPGKALEWFAHIFSTDEKSLKLSLRSRLTLSKDTSKSQVVLTMTNMAPVDSATYYCARDSSNYEGYFDFWGQGTLVTVSS VL: EVVLTQSPATLSVSPGERATLSCRASQSVRSNLAWYQQKSGQAPRLLIYGSTIRATGVPARFSGSGSGTEFTLTISSLQSEDFAVYYCQQYSDWPFTFGPGTKVDIK | 8.2 nM | 0.000563 s⁻¹ | 68800 M⁻¹ s⁻¹ | ≥ 10 fold | 98.5% | 3250 | no binding (tested: 1000 nM)
2 | 21E11 (antibody, V domains shown, Hybridoma supernatant (AlivaMab mouse); captured/detected via mouse Fc) VH: QVTLKESGPVLVKPTETLTLTCTVSGFSLSNVRMGVSWIRQPPGKALEWFAHIFSSDEKSIRRSLRSRLTLSKDTSKSQVVLTMTNMDPVDTATYYCARDSSNYEGYFDFWGQGTLVTVSS VL: DMVVTQSPATLSVSPGERATLSCRASQSVGSDLAWYQQPPGQSPRLLIYGASTRATGVPARFSGSGSGTDFTLTITSLESEDFAVYYCQQYNDWPFTFGPGTKVDIK | 9.5 nM | 0.000632 s⁻¹ | 66600 M⁻¹ s⁻¹ | ≥ 10 fold | 98.5% | 3100 | no binding (tested: 1000 nM)
3 | 49B11 (antibody, V domains shown, Hybridoma supernatant (AlivaMab mouse); captured/detected via mouse Fc) VH: QVTLKESGPVLVKPTETLTLTCTVSGFSLSNVRMGVSWIRQPPGKALEWFAHIFSSDEKSIRRSLRSRLTLSKDTSKSQVVLTMTNMDPVDTATYYCARDSSNYEGYFDYWGQGTLVTVSS VL: EMEVTQSPATLSVSPGERATLSCRASQNIGSDLAWYQQQSGQAPRLLISGASTRATGVPTRFSGSGSGTDFTLTITSLQSEDFAVYYCQQYNDWPFTFGPGTKVDIK | 9.1 nM | 0.000695 s⁻¹ | 76400 M⁻¹ s⁻¹ | ≥ 10 fold | 98.5% | 2980 | no binding (tested: 1000 nM)
4 | 19A9 (antibody, V domains shown, Hybridoma supernatant (AlivaMab mouse); captured/detected via mouse Fc) VH: QVTLEESGPVLVKPTETLTLTCTVSGFSLSNARMGVSWIRQPPGKAPEWFAHIFSTDEKSLRLSLRSRLTLSKDTSKSQVVLTMTNMDPVDTATYYCARDSSNYEGYFDYWGQGTLVTVSS VL: EVVMTQSPATLSVSPGERATLSCRASQSVNRNLAWYQQKPGQAPRLLIFGTSTRATGIPARFSGSGSGTEFTLTIDSLQSEHSGLYYCQQYNDWPFTFGPGTKVDIK | 18.6 nM | 0.00104 s⁻¹ | 55800 M⁻¹ s⁻¹ | ≥ 10 fold | 98.1% | 3100 | no binding (tested: 1000 nM)
5 | 12H6 (antibody, V domains shown, Hybridoma supernatant (AlivaMab mouse); captured/detected via mouse Fc) VH: QVTLKESGPVLVKPTETLTLTCTVSGFSLSNARMGVSWIRQPPGKALEWLAHIFSTDEKSIRRSLRSRLTLSKDTSKSQVVLTMTNMDPVDTATYYCARDSSNYEGYFDYWGQGTLVTVSS VL: EVVMTQSPATLSVSPGERATLSCRASQGVSSNFAWYQQRPGQSPRLLLYGASTRATGVPGRFSGSGSGTENILTISSLQSEDFAIYFCQQYKDWPFTFGPGSKVDIK | 12.4 nM | 0.000733 s⁻¹ | 59300 M⁻¹ s⁻¹ | ≥ 10 fold | 98.3% | 3440 | no binding (tested: 1000 nM)
6 | 21E7 (antibody, V domains shown, Hybridoma supernatant (AlivaMab mouse); captured/detected via mouse Fc) VH: QVTLEESGPVLVKPTETLTLTCTVSGFSLSNARMGVSWIRQPPGKAPEWFAHIFSTDEKSLRLSLRSRLTLSKDTSKSQVVLTMTNMDPVDTATYYCARDSSNYEGYFDYWGQGTLVTVSS VL: DVVLTQSPATLSVSPGERATLSCRASQSVNSNLAWYQQNPGQAPRLLIFGSSTRATGIPASFSGSGSGTEFTLTINSLQSEHSAVYYCQQYNDWPFTFGPGTKVDIK | 19.9 nM | 0.0013 s⁻¹ | 65200 M⁻¹ s⁻¹ | ≥ 10 fold | 98.5% | 3100 | no binding (tested: 1000 nM)
7 | 46E10 (antibody, V domains shown, Hybridoma supernatant (AlivaMab mouse); captured/detected via mouse Fc) VH: QVTLKESGPVLVKPTETLTLTCTVSGFSLSNARMGVSWIRQPPGKALEWLAHIFSTDEKSIRRSLRSRLTLSKDTSKSQVVLIMTNMDPVDTATYYCARDSSNYEGYFDYWGQGTLVTVSS VL: EVVMTQSPPNLSVSPGERATLSCRASQSVTSNFAWYQQRPGQSPRLLLYGASTRATGVPGRFSGSGSGTENILTISSLQSEDFAVYFCQQYKDWPFTFGPGSKVDIK | 12 nM | 0.000716 s⁻¹ | 59700 M⁻¹ s⁻¹ | ≥ 10 fold | 98.7% | 2990 | no binding (tested: 1000 nM)
8 | 11B11 (antibody, V domains shown, Hybridoma supernatant (AlivaMab mouse); captured/detected via mouse Fc) VH: QVTLKESGPVLVKPTETLTLTCTVSGFSLSNAKMGVSWIRQPPGKALEWLAHIFSTDEKSIRRSLRSRLTMSKDTSKSQVVLTMTNMDPVDTATYYCVRDSSNYEGYFDYWGQGTLVTVSS VL: EVLMTQSPATLSVSPGERATLSCRASQSVSTNFAWYQQRPGQAPRLLLFGASTRATGIPGRFSGSGSGTENILTISSLQSEDFAIYFCQQYKDWPFTFGPGSKVEIK | 21.7 nM | 0.00113 s⁻¹ | 52100 M⁻¹ s⁻¹ | ≥ 10 fold | 98.2% | 3390 | no binding (tested: 1000 nM)
9 | 32A10 (antibody, V domains shown, Hybridoma supernatant (AlivaMab mouse); captured/detected via mouse Fc) VH: QVTLKESGPVLVKPTETLTLTCTVSGFSLSNARMGVSWIRQPPGKALEWLAHIFSTDEKSIRRSLRSRLTLSKDTSKSQVVLTMTNMDPVDTATYFCARDSSNYEGYFDYWGQGTLVTVSS VL: EVVMTQSPATLSVSPGERVTLSCRASQSVSSNFAWYQQRPGQAPRLLLYGATTRATGLPGRFSGSGSGTENILTISSLQSEDFAIYFCQQYKDWPFTFGPGSKVDIK | 9.6 nM | 0.000626 s⁻¹ | 65400 M⁻¹ s⁻¹ | ≥ 10 fold | 98.3% | 3350 | no binding (tested: 1000 nM)
10 | 12B2 (antibody, V domains shown, Hybridoma supernatant (AlivaMab mouse); captured/detected via mouse Fc) VH: QVTLKESGPVLVKPTETLTLTCTVSGFSLSNPRMGVSWIRQPPGKALEWLGHIFSSDEKSYRLSLRSRLSISKDTSKSQVVLTMTNMDPVDTATYYCVRDSSNYGGYFDYWGQGTLVTVSS VL: EVVMTQSPATLSVSPGERATLSCRASQSVINNLAWYQQKPGQAPRLLIYGTSTRATDIPARFSGSGSGTEFTLTISSLQSEDFAVYYCQDYNNWPFTFGPGTKVDIK | 24.3 nM | 0.00179 s⁻¹ | 73800 M⁻¹ s⁻¹ | ≥ 10 fold | 97.9% | 2750 | no binding (tested: 1000 nM)
11 | 20B9 (antibody, V domains shown, Hybridoma supernatant (AlivaMab mouse); captured/detected via mouse Fc) VH: QVTLKESGPVLVKPTETLTLTCTVSGFSLSNARMGVSWIRQPPGKALEWLGHIFSTDEKSYSTSLRGRITISKDTSRGLVVLTLTNMDPVDTATYYCARDSSNYEGYFDFWGPGFLVTVSS VL: EIVMTQSPATLSVSPGERATLSCRVSQSIGANLAWYQQKFGQAPRLLIYGASTRATGIPVRFSGGGSGTEFTLTISSLQSEDFAIYSCQQYIYWPFTFGPGTTVDIK | 32.1 nM | 0.0015 s⁻¹ | 46700 M⁻¹ s⁻¹ | ≥ 10 fold | 98.3% | 3420 | no binding (tested: 1000 nM)
